Measured values from paper PMC6469964.
Read-outs that look alike come from different tables or passages of the source.

Experiments:
[1] = target: T1, 6xHis-HNRNPK (mouse, UniProt P61979 1-463); experiment: EMSA
[2] = target: T1, 6xHis-HNRNPK; experiment: EMSA; remark: listed apart in the source

Row | Binder | binding result [1] | binding result [2]
1 | mutant Repeat B RNA (ssRNA) RNA: GCAACAGCAACUGCAACAGCAACAGCAACUGCAACUGCAACAGCAACUGCAACA | no binding | –
2 | WT Repeat B RNA (ssRNA) RNA: GCCCCAGCCCCUGCCCCAGCCCCAGCCCCUGCCCCUGCCCCAGCCCCUGCCCCA | – | binds
